Reference: patent publication US20150118286A1 (ELIXIR INSTITUTE OF REGENERATIVE MEDICINE, published 2015)

B1: P18 peptide (peptide)
peptide: RRYWYWRR
notes: Synthetic octapeptide
B2: P14 peptide (peptide)
peptide: RRFVLL
B3: P16 peptide (peptide)
peptide: RRWWRRYY
notes: Synthetic octapeptide
B4: P17 peptide (peptide)
peptide: RRRYWYYR
notes: Synthetic octapeptide
B5: P13 peptide (peptide)
peptide: RRVAL

Each binder was assayed against T1, Mushroom tyrosinase (mushroom, UniProt C7FF04 1-392) (assay: cell-based or functional assay).
T1 sequence (C7FF04 1-392): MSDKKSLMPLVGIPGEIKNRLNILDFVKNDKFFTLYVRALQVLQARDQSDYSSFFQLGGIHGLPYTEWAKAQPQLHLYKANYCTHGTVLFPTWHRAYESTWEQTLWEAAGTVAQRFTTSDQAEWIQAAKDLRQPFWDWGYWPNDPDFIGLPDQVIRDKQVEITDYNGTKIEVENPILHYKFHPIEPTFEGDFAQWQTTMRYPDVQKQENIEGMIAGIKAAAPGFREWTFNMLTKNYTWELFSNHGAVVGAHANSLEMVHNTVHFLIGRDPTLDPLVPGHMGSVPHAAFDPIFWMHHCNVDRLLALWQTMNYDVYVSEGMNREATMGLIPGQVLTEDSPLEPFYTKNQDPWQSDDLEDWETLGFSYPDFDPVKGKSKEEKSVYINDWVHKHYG

Binder | IC50 [µM], mushroom tyrosinase inhibition (dopachrome OD 475 nm, L-tyrosine substrate)
B1 | 282 µM
B2 | 1770 µM
B3 | 238 µM
B4 | 398 µM
B5 | 2200 µM

The binders below were run against T1, Mushroom tyrosinase (assay: enzyme kinetics on mushroom tyrosinase, Lineweaver-Burk / nonlinear regression, differs from Table 4).
Experimental: Tyrosinase inhibitory activity was determined in vitro using L-tyrosine or L-dopa as the substrate following a modified method from Piao, L. Z., Park, H. R., Park, Y. K., Lee, S. K., Park, J. H., and Park, M. K. (2002) Chem Pharm Bull (Tokyo) 50, 309-311. The concentration of enzyme, substrate and inhibitor was denoted as [E], [S] and [I], respectively. The experiment was conducted in a 96-well flat-bottomed plate. Each well contained 80 μl of 0.067 M potassium phosphate buffer (pH 6.8), 40 μl of 5 mg/ml L-tyrosine dissolved in 0.067 M potassium phosphate buffer (pH 6.8), 40 μl of the different concentrations of inhibitors dissolved in the same buffer, and 40 μl of 480 units/ml mushroom tyrosinase solution. The final volume of each well was 200 μl, containing 1 mg/ml [S], 96 units/ml [E] and varying concentrations of [I] ranging from 1 μM to 10 mM. For the negative control wells, the inhibitors were substituted with buffer solution and adjusted to the total volume of 200 μl. HQ served as a positive control to calibrate the assay as a wide range of IC₅₀ values has been previously reported (Neeley, E., Fritch, G., Fuller, A., Wolfe, J., Wright, J., and Flurkey, W. (2009) Int J Mol Sci 10, 3811-3823). The assay mixture was incubated at 37° C. The optical density of the reaction mixtures, which correlates with the amount of dopachrome produced, was measured at 475 nm using a Varioskan microplate reader (Thermo Electron Corporation, San Jose, Calif.) at different time periods. For assessment of the 2nd step of melanin synthesis, we used L-dopa as the substrate and freshly extracted human tyrosinase as previously described (Abu Ubeid, A., Zhao, L., Wang, Y., and Hantash, B. M. (2009) J Invest Dermatol 129, 2242-2249).
The kinetics and mode of inhibition for P16-18 (SEQ ID NO: 1, 2 and 3 respectively) and HQ was determined using a standard assay (Pomerantz, S. H. (1966) J Biol Chem 241, 161-168). As illustrated by Lineweaver-Burk plots shown in FIG. 3, the Vₘₐₓ was independent of […] for HQ and all 3 octapeptides, whereas the Kₘ was altered.

Binder | Ki
B1 | 179 µM
B3 | 167 µM
B4 | 190 µM
